Measurements reported in PMC3324464, “The GPI Anchor Signal Sequence Dictates the Folding and Functionality of the Als5 Adhesin from Candida albicans” (PLoS ONE, 2012).
Entries after “also recorded” stand apart in the source; their conditions may differ.

How the values were obtained:
GST-Als5 [1] = molecular target: T1, GST-Als5 (Candida albicans, UniProt Q5A8T7 20-1327); experiment: other fluorescence titration; van't Hoff plots of the association constants from the fluorescence titrations at different temperatures; ΔH° from the slope; conditions: both partners purified
T1 construct: source: E. coli BL21, purified (glutathione-agarose); not shown: GST, N-terminal, kept
T1 sequence: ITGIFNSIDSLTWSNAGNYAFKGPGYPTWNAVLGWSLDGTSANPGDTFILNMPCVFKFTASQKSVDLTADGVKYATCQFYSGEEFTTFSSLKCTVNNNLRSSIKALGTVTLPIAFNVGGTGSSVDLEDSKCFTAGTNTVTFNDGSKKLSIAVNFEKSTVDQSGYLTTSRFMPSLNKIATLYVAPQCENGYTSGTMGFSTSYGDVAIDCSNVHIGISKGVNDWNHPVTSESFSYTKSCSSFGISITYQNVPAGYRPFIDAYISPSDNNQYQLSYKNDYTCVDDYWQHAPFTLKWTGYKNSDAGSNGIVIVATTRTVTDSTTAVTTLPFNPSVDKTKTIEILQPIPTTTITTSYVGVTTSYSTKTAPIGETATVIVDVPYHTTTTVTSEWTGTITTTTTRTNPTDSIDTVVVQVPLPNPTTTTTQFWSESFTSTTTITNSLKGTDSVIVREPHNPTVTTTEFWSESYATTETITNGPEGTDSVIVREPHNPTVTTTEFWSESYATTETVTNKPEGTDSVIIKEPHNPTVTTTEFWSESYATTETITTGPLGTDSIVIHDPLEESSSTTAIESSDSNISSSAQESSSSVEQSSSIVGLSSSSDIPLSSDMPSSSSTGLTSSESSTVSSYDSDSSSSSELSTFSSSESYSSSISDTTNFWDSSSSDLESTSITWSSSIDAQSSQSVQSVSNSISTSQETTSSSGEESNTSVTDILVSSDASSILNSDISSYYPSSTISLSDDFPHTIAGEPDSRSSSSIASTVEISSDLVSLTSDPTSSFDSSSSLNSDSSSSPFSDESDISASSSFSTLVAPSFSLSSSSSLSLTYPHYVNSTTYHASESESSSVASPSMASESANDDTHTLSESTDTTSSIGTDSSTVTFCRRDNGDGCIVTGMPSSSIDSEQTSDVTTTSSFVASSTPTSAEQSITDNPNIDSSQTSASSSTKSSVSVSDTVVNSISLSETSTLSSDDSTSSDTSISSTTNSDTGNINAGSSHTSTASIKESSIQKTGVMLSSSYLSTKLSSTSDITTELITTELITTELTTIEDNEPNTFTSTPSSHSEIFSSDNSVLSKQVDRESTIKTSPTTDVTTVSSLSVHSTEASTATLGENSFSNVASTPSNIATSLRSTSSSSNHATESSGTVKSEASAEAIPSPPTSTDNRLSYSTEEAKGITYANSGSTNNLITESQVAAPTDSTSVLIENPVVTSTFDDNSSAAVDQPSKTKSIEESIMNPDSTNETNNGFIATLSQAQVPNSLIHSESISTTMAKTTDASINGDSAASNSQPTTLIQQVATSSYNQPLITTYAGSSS

GST-Als5-SS [2] = molecular target: T2, GST-Als5-SS (Candida albicans, UniProt Q5A8T7 20-1326, N-terminal GST tag (pGEX-6P-2) not cleaved, omitted here; expressed in E. coli, unglycosylated. The 4044 bp insert implies the full ORF, including the N-terminal secretion signal, although the figure); experiment: as above; conditions: both partners purified
GST-Als5 [3] = molecular target: T1, GST-Als5; experiment: other fluorescence titration; tryptophan fluorescence of 0.02 mg/ml protein, peptide titrated in; one-site saturation model; 42 °C; conditions: both partners purified
GST-Als5 [4] = molecular target: T1, GST-Als5; experiment: other fluorescence titration; conditions: both partners purified
GST-Als5 [5] = molecular target: T1, GST-Als5; experiment: other fluorescence titration; tryptophan fluorescence of 0.02 mg/ml protein, peptide titrated in; one-site saturation model; 52 °C (secondary structure of both proteins mildly perturbed at this temperature); conditions: both partners purified
GST-Als5-SS [6] = molecular target: T2, GST-Als5-SS; experiment: as above; conditions: both partners purified
[7] = Aggregation by transmission electron microscopy; assay type: physicochemical; conditions: 37 °C, 2 weeks; 0.4 µM / 0.09 mg/ml (method)
Method: Transmission Electron Microscopy (TEM)
TEM studies were carried out on a JEOL 2100F. The proteins (0.09 mg/ml) were incubated at 37 °C for 2 weeks prior to the measurements. The proteins were spotted on a carbon-coated copper grid and positively stained with 2% uranyl acetate. The sample was then dried and examined by TEM using a 210 kV accelerating voltage.
Figure 5 Transmission electron microscope images showing aggregation by GST-Als5. […] The scale bar in each panel represents 100 nm. Left panel: 10,000X magnification. Right panel: 25,000X magnification.
(A) Prediction of β-aggregation potential for the GPI anchor attachment signal sequence (SS). The prediction of β-aggregation potential for the SS was done using TANGO (residues 1328–1347). Also shown is the propensity for α-helix, β-turn and β-sheet formation in the unfolded polypeptide chain as predicted by TANGO. […] (B). Transmission electron microscope images showing aggregation by SS and SS in the presence of GST-Als5. The samples, SS (40.0 µM), GST-Als5 (0.4 µM) and GST-Als5 (0.4 µM) + SS (40.0 µM) were incubated as 37 °C for two days before TEM images were recorded.

| Molecule | dH (GST-Als5 [1]) | dH (GST-Als5-SS [2]) | Kd (GST-Als5 [3]) | Kd (GST-Als5 [4]) | Kd (GST-Als5 [5]) | Kd (GST-Als5-SS [6]) | aggregation (in words) [7] |
| --- | --- | --- | --- | --- | --- | --- | --- |
| AYKSLMT (source: synthetic peptide (USV Ltd.)) | -0.803 kcal/mol | 18.6 kcal/mol | 9 nM | 13 nM | 12 nM | 2 nM | – |
| GST-Als5-SS: GST fusion of Als5 with the GPI-anchor attachment signal sequence, expressed in E. coli (protein, left off: GST, N-terminal, kept) ITGIFNSIDSLTWSNAGNYAFKGPGYPTWNAVLGWSLDGTSANPGDTFILNMPCVFKFTASQKSVDLTADGVKYATCQFYSGEEFTTFSSLKCTVNNNLRSSIKALGTVTLPIAFNVGGTGSSVDLEDSKCFTAGTNTVTFNDGSKKLSIAVNFEKSTVDQSGYLTTSRFMPSLNKIATLYVAPQCENGYTSGTMGFSTSYGDVAIDCSNVHIGISKGVNDWNHPVTSESFSYTKSCSSFGISITYQNVPAGYRPFIDAYISPSDNNQYQLSYKNDYTCVDDYWQHAPFTLKWTGYKNSDAGSNGIVIVATTRTVTDSTTAVTTLPFNPSVDKTKTIEILQPIPTTTITTSYVGVTTSYSTKTAPIGETATVIVDVPYHTTTTVTSEWTGTITTTTTRTNPTDSIDTVVVQVPLPNPTTTTTQFWSESFTSTTTITNSLKGTDSVIVREPHNPTVTTTEFWSESYATTETITNGPEGTDSVIVREPHNPTVTTTEFWSESYATTETVTNKPEGTDSVIIKEPHNPTVTTTEFWSESYATTETITTGPLGTDSIVIHDPLEESSSTTAIESSDSNISSSAQESSSSVEQSSSIVGLSSSSDIPLSSDMPSSSSTGLTSSESSTVSSYDSDSSSSSELSTFSSSESYSSSISDTTNFWDSSSSDLESTSITWSSSIDAQSSQSVQSVSNSISTSQETTSSSGEESNTSVTDILVSSDASSILNSDISSYYPSSTISLSDDFPHTIAGEPDSRSSSSIASTVEISSDLVSLTSDPTSSFDSSSSLNSDSSSSPFSDESDISASSSFSTLVAPSFSLSSSSSLSLTYPHYVNSTTYHASESESSSVASPSMASESANDDTHTLSESTDTTSSIGTDSSTVTFCRRDNGDGCIVTGMPSSSIDSEQTSDVTTTSSFVASSTPTSAEQSITDNPNIDSSQTSASSSTKSSVSVSDTVVNSISLSETSTLSSDDSTSSDTSISSTTNSDTGNINAGSSHTSTASIKESSIQKTGVMLSSSYLSTKLSSTSDITTELITTELITTELTTIEDNEPNTFTSTPSSHSEIFSSDNSVLSKQVDRESTIKTSPTTDVTTVSSLSVHSTEASTATLGENSFSNVASTPSNIATSLRSTSSSSNHATESSGTVKSEASAEAIPSPPTSTDNRLSYSTEEAKGITYANSGSTNNLITESQVAAPTDSTSVLIENPVVTSTFDDNSSAAVDQPSKTKSIEESIMNPDSTNETNNGFIATLSQAQVPNSLIHSESISTTMAKTTDASINGDSAASNSQPTTLIQQVATSSYNQPLITTYAGSS | – | – | – | – | – | – | showed very poor aggregation; also recorded: showed no propensity for aggregation |
